What was measured:
YB-1C [1] = target: T1, YB-1C (UniProt P67809 1-180); test: NMR (1H-15N HSQC); single peaks; NMR: 25 mM phosphate pH 6.8, 25 mM KCl, 298 K, 50-100 uM protein; EMSA: 20 mM HEPES pH 7.5, 60 mM KCl, room temperature; melting: 10 mM HEPES-KOH pH 7.6, 130 mM KCl, 30 C; details: protein: recombinant; tags: His tag (Ni-NTA)
YB-1-RK [2] = target: T2, YB-1-RK (UniProt P67809 1-180, R97A;K98A); test: NMR (1H-15N HSQC); no multiple peaks; stem not destabilized; NMR: 25 mM phosphate pH 6.8, 25 mM KCl, 298 K, 50-100 uM protein; EMSA: 20 mM HEPES pH 7.5, 60 mM KCl, room temperature; melting: 10 mM HEPES-KOH pH 7.6, 130 mM KCl, 30 C; details: protein: recombinant; tags: His tag (Ni-NTA); hairpin, 10 bp stem, 4 nt loop
T2 sequence (P67809 1-180 R97A/K98A): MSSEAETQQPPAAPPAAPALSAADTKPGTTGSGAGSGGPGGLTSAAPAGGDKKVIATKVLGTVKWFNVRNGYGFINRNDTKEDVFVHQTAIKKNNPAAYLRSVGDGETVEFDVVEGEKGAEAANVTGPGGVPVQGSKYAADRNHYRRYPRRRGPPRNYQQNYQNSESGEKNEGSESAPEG

YB-1-KY [3] = target: T3, YB-1-KY (UniProt P67809 1-180, K137A;Y138A); test: as above; details: protein: recombinant; tags: His tag (Ni-NTA); hairpin, 10 bp stem, 4 nt loop
T3 sequence (P67809 1-180 K137A/Y138A): as the sequence (P67809 1-180 R97A/K98A) above, with A97R, A98K, K137A, Y138A counted along it

YB-1C [4] = target: T1, YB-1C; test: NMR (1H-15N HSQC); multiple peaks; NMR: 25 mM phosphate pH 6.8, 25 mM KCl, 298 K, 50-100 uM protein; EMSA: 20 mM HEPES pH 7.5, 60 mM KCl, room temperature; melting: 10 mM HEPES-KOH pH 7.6, 130 mM KCl, 30 C; details: protein: recombinant; tags: His tag (Ni-NTA); hairpin, 10 bp stem, 4 nt loop
FUS RRM = FUS RRM (UniProt P35637 275-385); test: NMR; CSPs (data not shown); no stem opening at 1.75:1; NMR: 25 mM phosphate pH 6.8, 25 mM KCl, 298 K, 50-100 uM protein; EMSA: 20 mM HEPES pH 7.5, 60 mM KCl, room temperature; melting: 10 mM HEPES-KOH pH 7.6, 130 mM KCl, 30 C; details: protein: recombinant; hairpin, 10 bp stem, 4 nt loop
FUS RRM, sequence (P35637 275-385): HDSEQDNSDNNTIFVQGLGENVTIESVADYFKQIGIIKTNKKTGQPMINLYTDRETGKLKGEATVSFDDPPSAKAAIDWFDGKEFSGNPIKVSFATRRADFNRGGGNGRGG

YB-1C [5] = target: T1, YB-1C; test: NMR (1H imino and 1H-15N HSQC); multiple peaks at 1:1, lost at 0.25:1; NMR: 25 mM phosphate pH 6.8, 25 mM KCl, 298 K, 50-100 uM protein; EMSA: 20 mM HEPES pH 7.5, 60 mM KCl, room temperature; melting: 10 mM HEPES-KOH pH 7.6, 130 mM KCl, 30 C; details: protein: recombinant; tags: His tag (Ni-NTA); hairpin, 10 bp stem, 4 nt loop
YB-1C [6] = target: T1, YB-1C; test: fluorescence melting; 130 mM KCl, 30 C; 10:1 protein:DNA; NMR: 25 mM phosphate pH 6.8, 25 mM KCl, 298 K, 50-100 uM protein; EMSA: 20 mM HEPES pH 7.5, 60 mM KCl, room temperature; melting: 10 mM HEPES-KOH pH 7.6, 130 mM KCl, 30 C; details: protein: recombinant; tags: His tag (Ni-NTA); label: 5' FAM, 3' BHQ1; hairpin
YB-1 (full length) = YB-1 (full length) (UniProt P67809 1-324); test: fluorescence melting; 130 mM KCl, 30 C; 10:1 protein:DNA; opening of hairpin; NMR: 25 mM phosphate pH 6.8, 25 mM KCl, 298 K, 50-100 uM protein; EMSA: 20 mM HEPES pH 7.5, 60 mM KCl, room temperature; melting: 10 mM HEPES-KOH pH 7.6, 130 mM KCl, 30 C; details: protein: recombinant, tags: His tag (Ni-NTA), label: 5' FAM, 3' BHQ1
YB-1 (full length), sequence (P67809 whole entry): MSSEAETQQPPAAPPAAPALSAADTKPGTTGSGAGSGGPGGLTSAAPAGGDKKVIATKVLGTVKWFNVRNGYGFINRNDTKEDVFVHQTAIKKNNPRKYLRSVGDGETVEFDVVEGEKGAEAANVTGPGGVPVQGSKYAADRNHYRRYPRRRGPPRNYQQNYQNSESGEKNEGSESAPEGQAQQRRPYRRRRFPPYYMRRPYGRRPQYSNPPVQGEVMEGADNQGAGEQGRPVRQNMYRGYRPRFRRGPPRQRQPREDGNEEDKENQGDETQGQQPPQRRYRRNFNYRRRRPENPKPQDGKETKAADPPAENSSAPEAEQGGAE

YB-1-RK [7] = target: T2, YB-1-RK; test: NMR (1H-15N HSQC); CSD binding unaffected vs wild type; NMR: 25 mM phosphate pH 6.8, 25 mM KCl, 298 K, 50-100 uM protein; EMSA: 20 mM HEPES pH 7.5, 60 mM KCl, room temperature; melting: 10 mM HEPES-KOH pH 7.6, 130 mM KCl, 30 C; details: protein: recombinant; tags: His tag (Ni-NTA)
YB-1-KY [8] = target: T3, YB-1-KY; test: as above; details: protein: recombinant; tags: His tag (Ni-NTA)

T1 sequence (P67809 1-180): as the sequence (P67809 1-180 R97A/K98A) above, with A97R, A98K counted along it

TTTTTTTTTT (ssDNA) [T10]: binds (YB-1C [1]).

ACAGACAGAACCCCUUCUGUCUGU (structured_RNA) [ACU-4G RNA stem/loop]: binds (YB-1-RK [2]); binds (YB-1-KY [3]); binds (YB-1C [4]).

ACAGACAGAACCCCTTCTGTCTGT (structured_DNA) [ACT-4G DNA stem/loop]: binds (FUS RRM); binds (YB-1C [5]).

AAAAAAAAAA (ssDNA) [A10]: binds (YB-1C [1]).

GGGGGGGGTTAACCCCCCCC (structured_DNA) [DNA1 hairpin]: binds (YB-1C [6]); binds (YB-1 (full length)).

CCCCCCCCCC (ssDNA) [C10]: binds (YB-1C [1]); binds (YB-1-RK [7]); binds (YB-1-KY [8]).

Source: paper PMC8464072, “YB-1 unwinds mRNA secondary structures in vitro and negatively regulates stress granule assembly in HeLa cells”
